The values that follow are results of earlier work, collected in paper PMC3385930.

The target of one series is Band 3 (Homo sapiens) (UniProt P02730).
Another series addresses Adducin (Homo sapiens) (UniProt P35611).

Chain of UniProt P02730 (P02730 whole entry): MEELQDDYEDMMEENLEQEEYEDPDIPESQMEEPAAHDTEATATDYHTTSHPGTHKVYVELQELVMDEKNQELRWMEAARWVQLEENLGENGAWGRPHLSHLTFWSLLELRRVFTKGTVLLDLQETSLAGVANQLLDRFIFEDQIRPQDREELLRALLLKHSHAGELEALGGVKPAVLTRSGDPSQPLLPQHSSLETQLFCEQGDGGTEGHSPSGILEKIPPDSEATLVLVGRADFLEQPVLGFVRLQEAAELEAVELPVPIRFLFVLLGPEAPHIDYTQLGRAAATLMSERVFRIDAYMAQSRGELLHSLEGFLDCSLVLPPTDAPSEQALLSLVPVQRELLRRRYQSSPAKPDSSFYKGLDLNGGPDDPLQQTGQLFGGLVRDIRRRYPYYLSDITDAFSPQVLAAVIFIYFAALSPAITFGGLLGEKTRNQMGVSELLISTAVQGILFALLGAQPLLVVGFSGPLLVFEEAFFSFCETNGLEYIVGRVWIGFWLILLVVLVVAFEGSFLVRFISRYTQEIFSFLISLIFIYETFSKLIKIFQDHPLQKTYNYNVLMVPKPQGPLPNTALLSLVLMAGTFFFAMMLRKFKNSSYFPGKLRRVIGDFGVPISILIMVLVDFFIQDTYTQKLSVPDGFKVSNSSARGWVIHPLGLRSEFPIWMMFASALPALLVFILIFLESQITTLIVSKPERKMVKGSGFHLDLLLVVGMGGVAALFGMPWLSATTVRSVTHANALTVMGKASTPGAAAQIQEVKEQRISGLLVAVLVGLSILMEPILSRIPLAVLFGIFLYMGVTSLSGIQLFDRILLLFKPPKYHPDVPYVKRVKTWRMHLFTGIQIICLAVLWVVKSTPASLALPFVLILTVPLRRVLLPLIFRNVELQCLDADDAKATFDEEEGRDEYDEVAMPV

For the substance Adducin (from UniProt P35611), in the series with Band 3 (Homo sapiens), the dissociation constant Kd was 100 nM.

With Stomatin (from UniProt P27105), the dissociation constant Kd with Adducin (Homo sapiens) is 100 nM.

Usually Kd stands for the equilibrium constant for the complex coming apart.
